# Assay results published in the supplement of paper PMC10567573.
# B1: CPOX (parent)
# chain: HAPTIHFNYRYFEVEEADGNKQWW
# Variants of: B1
# Test: protein stability index of a GFP-peptide fusion (GPS, HEK-293T) (PSI 1-6); higher = more stable
# Settings: c terminus: a fixed tail appended
# 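Also: lentivirally expressed fusions sorted by FACS into six bins by GFP to DsRed ratio, PSI derived from sequencing read proportions per bin multiplied by bin number.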
row,Variant,protein stability index
1,HAPTIHFNYRKFEVEEADGNKQWW,2.84
2,HAPTIHFNYRWFEVEEADGNKQWW,2.79
3,HAPTIHFNYREFEVEEADGNKQWW,3.35
4,HAPTIHFNYRPFEVEEADGNKQWW,2.98
5,HAPTIHFNYRGFEVEEADGNKQWW,2.62
6,HAPTIHFNYRRFEVEEADGNKQWW,2.36
7,HAPTIHFNYRLFEVEEADGNKQWW,2.39
8,HAPTIHFNYRVFEVEEADGNKQWW,2.12
9,HAPTIHFNYRSFEVEEADGNKQWW,2.92
10,HAPTIHFNYRCFEVEEADGNKQWW,1.99
11,HAPTIHFNYRMFEVEEADGNKQWW,2.42
12,HAPTIHFNYRTFEVEEADGNKQWW,3.23
13,HAPTIHFNYRIFEVEEADGNKQWW,2.16
14,HAPTIHFNYRNFEVEEADGNKQWW,2.98
15,HAPTIHFNYRHFEVEEADGNKQWW,3.13
16,HAPTIHFNYRDFEVEEADGNKQWW,3.12
17,HAPTIHFNYRFFEVEEADGNKQWW,2.26
18,HAPTIHFNYRAFEVEEADGNKQWW,3.23
19,HAPTIHFNYRYPEVEEADGNKQWW,3.12
20,HAPTIHFNYRYGEVEEADGNKQWW,3.51
21,HAPTIHFNYRYDEVEEADGNKQWW,3.51
22,HAPTIHFNYRYCEVEEADGNKQWW,2.02
23,HAPTIHFNYRYHEVEEADGNKQWW,3.01
24,HAPTIHFNYRYWEVEEADGNKQWW,1.99

row,Variant,protein stability index
1,HAPTIHFNYRYNEVEEADGNKQWW,3.05
2,HAPTIHFNYRYQEVEEADGNKQWW,2.63
3,HAPTIHFNYRYSEVEEADGNKQWW,2.87
4,HAPTIHFNYRYKEVEEADGNKQWW,3.04
5,HAPTIHFNYRYTEVEEADGNKQWW,3.08
6,HAPTIHFNYRYMEVEEADGNKQWW,2.52
7,HAPTIHFNYRYREVEEADGNKQWW,2.96
8,HAPTIHFNYRYIEVEEADGNKQWW,2.33
9,HAPTIHFNYRYEEVEEADGNKQWW,2.99
10,HAPTIHFNYRYYEVEEADGNKQWW,2.84
11,HAPTIHFNYRYAEVEEADGNKQWW,2.49
12,HAPTIHFNYRYLEVEEADGNKQWW,2.64
13,HAPTIYFNYRYFEVEEADGNKQWW,2.68
14,HAPTILFNYRYFEVEEADGNKQWW,1.82
15,HAPTIWFNYRYFEVEEADGNKQWW,1.59
16,HAPTINFNYRYFEVEEADGNKQWW,2.5
17,HAPTIVFNYRYFEVEEADGNKQWW,1.61
18,HAPTIMFNYRYFEVEEADGNKQWW,1.94
19,HAPTIQFNYRYFEVEEADGNKQWW,2.52
20,HAPTISFNYRYFEVEEADGNKQWW,2.31
21,HAPTIRFNYRYFEVEEADGNKQWW,2.04
22,HAPTITFNYRYFEVEEADGNKQWW,2.42
23,HAPTIPFNYRYFEVEEADGNKQWW,1.89
24,HAPTIHFNYRYFWVEEADGNKQWW,2.31

row,Variant,protein stability index
1,HAPTIHFNYRYFKVEEADGNKQWW,1.8
2,HAPTIHFNYRYFFVEEADGNKQWW,1.63
3,HAPTIHFNYRYFYVEEADGNKQWW,1.7
4,HAPTIHFNYRYFDVEEADGNKQWW,2.36
5,HAPTIHFNYRYFCVEEADGNKQWW,2.07
6,HAPTIHFNYRYFAVEEADGNKQWW,1.97
7,HAPTIHFNYRYFPVEEADGNKQWW,1.86
8,HAPTIHFNYRYFHVEEADGNKQWW,2.09
9,HAPTIHFNYRYFLVEEADGNKQWW,1.41
10,HAPTIHFNYRYFQVEEADGNKQWW,2.17
11,HAPTIHFNYRYFRVEEADGNKQWW,1.56
12,HAPTIHFNYRYFSVEEADGNKQWW,1.45
13,HAPTIHFNYRYFGVEEADGNKQWW,2.06
14,HAPTIHFNYRYFTVEEADGNKQWW,1.67
15,HAPTIHFNYRYFVVEEADGNKQWW,2.52
16,HAPTIHFNYRYFIVEEADGNKQWW,2.04
17,HAPTIHFNYRYFMVEEADGNKQWW,2.22
18,HAPTIHFNYRYFNVEEADGNKQWW,2.15
19,HAPTIHFNYCYFEVEEADGNKQWW,1.5
20,HAPTIHFNYPYFEVEEADGNKQWW,2.38
21,HAPTIHFNYEYFEVEEADGNKQWW,2.7
22,HAPTIHFNYVYFEVEEADGNKQWW,2.48
23,HAPTIHFNYMYFEVEEADGNKQWW,2.37
24,HAPTIHFNYIYFEVEEADGNKQWW,2.87

row,Variant,protein stability index
1,HAPTIHFNYWYFEVEEADGNKQWW,1.99
2,HAPTIHFNYDYFEVEEADGNKQWW,3.03
3,HAPTIHFNYTYFEVEEADGNKQWW,2.55
4,HAPTIHFNYQYFEVEEADGNKQWW,2.81
5,HAPTIHFNYNYFEVEEADGNKQWW,2.12
6,HAPTIHFNYYYFEVEEADGNKQWW,2.27
7,HAPTIHFNYHYFEVEEADGNKQWW,2.44
8,HAPTIHFNYAYFEVEEADGNKQWW,2.56
9,HAPTIHFNYFYFEVEEADGNKQWW,1.77
10,HAPTIHFNYGYFEVEEADGNKQWW,2.42
11,HAPTIHFNYKYFEVEEADGNKQWW,2.47
12,HAPTIHFNYLYFEVEEADGNKQWW,2.25
13,HAPTIHFNYSYFEVEEADGNKQWW,2.07
14,HAPTIHFNPRYFEVEEADGNKQWW,3.1
15,HAPTIHFNWRYFEVEEADGNKQWW,3.32
16,HAPTIHFNNRYFEVEEADGNKQWW,3.16
17,HAPTIHFNERYFEVEEADGNKQWW,3.5
18,HAPTIHFNHRYFEVEEADGNKQWW,2.9
19,HAPTIHFNKRYFEVEEADGNKQWW,3.37
20,HAPTIHFNLRYFEVEEADGNKQWW,3.03
21,HAPTIHFNFRYFEVEEADGNKQWW,2.05
22,HAPTIHFNARYFEVEEADGNKQWW,2.33
23,HAPTIHFNQRYFEVEEADGNKQWW,2.82
24,HAPTIHFNRRYFEVEEADGNKQWW,3.23

row,Variant,protein stability index
1,HAPTIHFNTRYFEVEEADGNKQWW,2.79
2,HAPTIHFNIRYFEVEEADGNKQWW,2.22
3,HAPTIHFNMRYFEVEEADGNKQWW,2.6
4,HAPTIHFNDRYFEVEEADGNKQWW,3.46
5,HAPTIHFNCRYFEVEEADGNKQWW,1.29
6,HAPTIHFNVRYFEVEEADGNKQWW,2.25
7,HAPTIHFWYRYFEVEEADGNKQWW,1.52
8,HAPTIHFEYRYFEVEEADGNKQWW,2.1
9,HAPTIHFQYRYFEVEEADGNKQWW,2.48
10,HAPTIHFSYRYFEVEEADGNKQWW,3.03
11,HAPTIHFAYRYFEVEEADGNKQWW,2.22
12,HAPTIHFVYRYFEVEEADGNKQWW,1.57
13,HAPTIHFFYRYFEVEEADGNKQWW,1.79
14,HAPTIHFDYRYFEVEEADGNKQWW,2.75
15,HAPTIHFMYRYFEVEEADGNKQWW,2.53
16,HAPTIHFIYRYFEVEEADGNKQWW,1.26
17,HAPTIHFPYRYFEVEEADGNKQWW,2.69
18,HAPTIHFTYRYFEVEEADGNKQWW,1.87
19,HAPTIHFGYRYFEVEEADGNKQWW,2.36
20,HAPTIHFKYRYFEVEEADGNKQWW,1.67
21,HAPTIHFRYRYFEVEEADGNKQWW,2.83
22,HAPTIHFYYRYFEVEEADGNKQWW,2.02
23,HAPTIHFNYRYFEVREADGNKQWW,1.41
24,HAPTIHFNYRYFEVSEADGNKQWW,2.49

row,Variant,protein stability index
1,HAPTIHFNYRYFEVQEADGNKQWW,2.2
2,HAPTIHFNYRYFEVDEADGNKQWW,2.58
3,HAPTIHFNYRYFEVVEADGNKQWW,1.79
4,HAPTIHFNYRYFEVTEADGNKQWW,1.81
5,HAPTIHFNYRYFEVGEADGNKQWW,2.04
6,HAPTIHFNYRYFEVMEADGNKQWW,2.35
7,HAPTIHFNYRYFEVPEADGNKQWW,2.13
8,HAPTIHFNYRYFEVFEADGNKQWW,2.14
9,HAPTIHFNYRYFEVLEADGNKQWW,2.49
10,HAPTIHFNYRYFEVYEADGNKQWW,1.9
11,HAPTIHFNYRYFEVKEADGNKQWW,2.56
12,HAPTIHFNYRYFEVWEADGNKQWW,2.4
13,HAPTIHFNYRYFEVIEADGNKQWW,2.7
14,HAPTIHFNYRYFEVAEADGNKQWW,1.93
15,HAPTIHFNYRYFEVNEADGNKQWW,1.84
16,HAPTIHFNYRYFEVHEADGNKQWW,1.5
17,HAPTIHFNYRYFEVCEADGNKQWW,2.15
18,HAPTIHHNYRYFEVEEADGNKQWW,3.35
19,HAPTIHTNYRYFEVEEADGNKQWW,3.15
20,HAPTIHRNYRYFEVEEADGNKQWW,2.83
21,HAPTIHNNYRYFEVEEADGNKQWW,2.71
22,HAPTIHSNYRYFEVEEADGNKQWW,3.02
23,HAPTIHWNYRYFEVEEADGNKQWW,2.96
24,HAPTIHYNYRYFEVEEADGNKQWW,2.48

row,Variant,protein stability index
1,HAPTIHANYRYFEVEEADGNKQWW,3.4
2,HAPTIHPNYRYFEVEEADGNKQWW,2.8
3,HAPTIHDNYRYFEVEEADGNKQWW,2.89
4,HAPTIHMNYRYFEVEEADGNKQWW,2.26
5,HAPTIHENYRYFEVEEADGNKQWW,3.06
6,HAPTIHGNYRYFEVEEADGNKQWW,3.52
7,HAPTIHQNYRYFEVEEADGNKQWW,3.21
8,HAPTIHKNYRYFEVEEADGNKQWW,3.03
9,HAPTIHVNYRYFEVEEADGNKQWW,2.58
10,HAPTIHCNYRYFEVEEADGNKQWW,2.35
11,HAPTIHINYRYFEVEEADGNKQWW,3.05
12,HAPTIHLNYRYFEVEEADGNKQWW,2.86
13,HAPTIHFNYRYFEVEGADGNKQWW,2.21
14,HAPTIHFNYRYFEVEPADGNKQWW,1.83
15,HAPTIHFNYRYFEVEFADGNKQWW,1.44
16,HAPTIHFNYRYFEVEMADGNKQWW,2.81
17,HAPTIHFNYRYFEVEAADGNKQWW,1.67
18,HAPTIHFNYRYFEVEDADGNKQWW,2.13
19,HAPTIHFNYRYFEVECADGNKQWW,1.67
20,HAPTIHFNYRYFEVEKADGNKQWW,2.18
21,HAPTIHFNYRYFEVENADGNKQWW,1.83
22,HAPTIHFNYRYFEVEHADGNKQWW,1.82
23,HAPTIHFNYRYFEVEIADGNKQWW,2.29
24,HAPTIHFNYRYFEVELADGNKQWW,1.44

row,Variant,protein stability index
1,HAPTIHFNYRYFEVEQADGNKQWW,2.39
2,HAPTIHFNYRYFEYEEADGNKQWW,2.23
3,HAPTIHFNYRYFEAEEADGNKQWW,2.52
4,HAPTIHFNYRYFEWEEADGNKQWW,2.35
5,HAPTIHFNYRYFESEEADGNKQWW,2.44
6,HAPTIHFNYRYFEDEEADGNKQWW,3.06
7,HAPTIHFNYRYFEMEEADGNKQWW,2.06
8,HAPTIHFNYRYFEEEEADGNKQWW,3.62
9,HAPTIHFNYRYFEQEEADGNKQWW,2.85
10,HAPTIHFNYRYFEGEEADGNKQWW,3.15
11,HAPTIHFNYRYFEHEEADGNKQWW,2.4
12,HAPTIHFNYRYFETEEADGNKQWW,2.43
13,HAPTIHFNYRYFENEEADGNKQWW,2.42
14,HAPTIHFNYRYFEIEEADGNKQWW,2.44
15,HAPTIHFNYRYFEPEEADGNKQWW,2.29
16,HAPTIHFNYRYFECEEADGNKQWW,1.82
17,HAPTIHFNYRYFEFEEADGNKQWW,2.11
18,HAPTIHFNYRYFELEEADGNKQWW,2.37
19,HAPTIHFNYRYFEKEEADGNKQWW,2.85
20,HAPTIHFNYRYFEREEADGNKQWW,2.29
